B1: 5-hydroxytryptamine receptor 2C (Homo sapiens), P28335-1 (parent)
chain: MVNLRNAVHSFLVHLIGLLVWQSDISVSPVAAIVTDIFNTSDGGRFKFPDGVQNWPALSIVIIIIMTIGGNILVIMAVSMEKKLHNATNYFLMSLAIADMLVGLLVMPLSLLAILYDYVWPLPRYLCPVWISLDVLFSTASIMHLCAISLDRYVAIRNPIEHSRFNSRTKAIMKIAIVWAISIGVSVPIPVIGLRDEEKVFVNNTTCVLNDPNFVLIGSFVAFFIPLTIMVITYCLTIYVLRRQALMLLHGHTEEPPGLSLDFLKCCKRNTAEEENSANPNQDQNARRRKKKERRPRGTMQAINNERKASKVLGIVFFVFLIMWCPFFITNILSVLCEKSCNQKLMEKLLNVFVWIGYVCSGINPLVYTLFNKIYRRAFSNYLRCNYKVEKKPPVRQIPRVAATALSGRELNVNIYRHTNEPVIEKASDNEPGIEMQVENLELPVNPSSVVSERISSV

Variants of: B1
Conditions: with GHSR

Row | Variant | effect of a mutation on the interaction
1 | MVNLRNAVHSFLVHLIGLLVWQSDISVSPVAAIVTDIFNTSDGGRFKFPDGVQNWPALSIVIIIIMTIGGNILVIMAVSMEKKLHNATNYFLMSLAIADMLVGLLVMPLSLLAILYDYVWPLPRYLCPVWISLDVLFSTASIMHLCAISLDRYVAVRSPVEHSRFNSRTKAIMKIAIVWAISIGVSVPIPVIGLRDEEKVFVNNTTCVLNDPNFVLIGSFVAFFIPLTIMVITYCLTIYVLRRQALMLLHGHTEEPPGLSLDFLKCCKRNTAEEENSANPNQDQNARRRKKKERRPRGTMQAINNERKASKVLGIVFFVFLIMWCPFFITNILSVLCEKSCNQKLMEKLLNVFVWIGYVCSGINPLVYTLFNKIYRRAFSNYLRCNYKVEKKPPVRQIPRVAATALSGRELNVNIYRHTNEPVIEKASDNEPGIEMQVENLELPVNPSSVVSERISSV [I156V;N158S;I160V] | increasing interaction strength

Source: IntAct's records for PubMed 25727097
